For this experiment, the target named is human TLR3, full length (human) (UniProt O15455). Description: cell-based or functional assay.

B1: mAb c1068 (antibody, from another filing, V domains shown)
VH: QVQLQQPGAELVQPGTSVRLSCKASGYIFTTYWIHWVKQRPGQGLEWIGEINPNNGRINYNEKFKTKATLTVDKSSSTAYMQLSSLTSEDSAVYYCTRVGVMITTFPYWGQGTLVTVSA
VL: DIQMTQSPASLSASVGETVTITCRASGNIHNYLAWYQQKQGKSPQLLVYNAKTLADGVPSRFSGSESGTQYSLKINSLQPEDFGSYYCQHFWSTPFTFGSGTKLELK
Consider B1, for which the % inhibition of TLR3 biological activity, poly(I:C) NF-κB reporter gene assay in 293T cells, mAb at 10 µg/ml was 38% and the TLR3 neutralization at saturation concentrations came out at 50%.

The record behind these values is patent EP3020822A1.
